Reference: the supplement of paper PMC12042874
± gives the uncertainty stated by the source.

Assay: amyloid nucleation score (Sup35N fusion, yeast selection) (log enrichment); library NNK1; higher = more nucleation; inactive = no reads after selection
Method in brief: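 DiMSum was used to calculate nucleation scores as log enrichment of output over input reads, centred on the mode score of non-aggregating sequences. Sequences with fewer than 100 input reads were not scored. Input and output came from Illumina sequencing of plasmid inserts in psi-negative yeast expressing peptides of 20 random codons fused to Sup35N, induced 24 hours with 100 μM copper sulfate and then grown 7 days at 30°C on medium lacking adenine and uracil.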

Compared with VLMCDGFHALRKL, VFGIRFLI is lower in amyloid nucleation score: 1.97 ± 0.36 for the first, -1.54 ± 2.7 for the second.

TGMGGV and GYFVSMSTDYSLSWRYICSA are within error of each other in amyloid nucleation score: 0.177 ± 1.2 for the first, -1.16 ± 0.67 for the second.

QRFWYTGFGSVPIQDIEVGI and WDCYCPWLTLKYEAGLRTSG are within error of each other in amyloid nucleation score: 0.328 ± 0.32 for the first, -1.17 ± 1.9 for the second.

FELQEYCFD and DCDYGCLKLSEEFGSVSSFR are within error of each other in amyloid nucleation score: 0.923 ± 0.5 for the first, 0.165 ± 1.4 for the second.

SETYTPDRYNVRT and LYSNVRRFVWRGTWMWSRRC are within error of each other in amyloid nucleation score: 0.536 ± 1.4 for the first, 0.969 ± 0.61 for the second.

RLCAQ and GHIHFWASRDLPTKCHILGL are within error of each other in amyloid nucleation score: 0.592 ± 0.81 for the first, -0.181 ± 0.67 for the second.

Going from HVRHNVYISVCEVARDKRRG to LRVHDHDRMSDKMRYCNPFC, the amyloid nucleation score falls from 5.12 ± 0.08 to 1.76 ± 0.42.

Going from GFPTPEPEDNVARSVRWIYS to IENSIGGMQLGVSISYMSGT, the amyloid nucleation score rises from -1.47 ± 1 to 0.208 ± 0.41.

First: TTTKLGPMLLGRNSVYCV
Second: HIVQRCFHVIYCSRVFYVLY
The amyloid nucleation score of the first is higher: 2.31 ± 0.25 for the first, 0.386 ± 0.53 for the second.

DYRLKLLYYSSWSVLLYFVG and FLLWKGTIDIMRWHVFASN are within error of each other in amyloid nucleation score: -0.142 ± 0.21 for the first, -0.847 ± 0.79 for the second.

First: KVNFSSSLGCVN
Second: MVFFTCSEMDVYMWRGYFNY
The amyloid nucleation score of the first is higher: 0.713 ± 0.85 for the first, -0.727 ± 0.28 for the second.

AYYVRGRNLLFVTIGYGYLC and GVGRGCYSMACCSAGRLTDG are within error of each other in amyloid nucleation score: -1 ± 1 for the first, -0.122 ± 0.85 for the second.

LLGVLWFKVSCGARAQLGIW and FGVRQVYINGNFLRCLGTKS are within error of each other in amyloid nucleation score: -0.197 ± 1.9 for the first, 0.751 ± 0.93 for the second.

SLPRSSIRYRFQCVRLESVM and ACSGISILTCIIYRRQYISS are within error of each other in amyloid nucleation score: -0.601 ± 0.47 for the first, -1 ± 0.91 for the second.

TYDLPTYIILVSPQYLCANT and VMMYLFYFHTRMCMSHLCYA are within error of each other in amyloid nucleation score: -0.06 ± 0.27 for the first, -0.891 ± 1.6 for the second.

KELCCRASSDLMLRWQVKVF and YNWYPEWLCYIFRTKQVVGT are within error of each other in amyloid nucleation score: 0.027 ± 1.4 for the first, 0.382 ± 0.45 for the second.

LDMECYYSIYRSESNVCMWI and VTNTSLFSIAKSLGHHHEGR are within error of each other in amyloid nucleation score: 1.31 ± 0.93 for the first, 0.272 ± 0.4 for the second.

IRWTEL and YLDDIH are within error of each other in amyloid nucleation score: 0.512 ± 0.24 for the first, -0.105 ± 0.44 for the second.

Compared with CLLYCTYVMRLTMLKILVVI, FMYWSIHDTIVLTWHDGSSL is lower in amyloid nucleation score: 1.27 ± 0.63 for the first, -0.036 ± 0.65 for the second.

First: KFIEMRRNKSPKHLPAWASD
Second: QSSLMLYDERRSNWIKHLAT
The amyloid nucleation score of the first is higher: 0.911 ± 0.54 for the first, -0.232 ± 0.37 for the second.

LNYDLWTKILNDVVVVCNRF and CLIISRVVRSVTNIMEMNNG are within error of each other in amyloid nucleation score: -0.185 ± 0.4 for the first, 0.251 ± 0.45 for the second.

Compared with VILSCSLLFCFNRSWGLGNE, RRCRVEFLYVHSDYM is lower in amyloid nucleation score: 7.04 ± 0.067 for the first, 3.79 ± 0.097 for the second.

Compared with EMKATIHLMLKINNTWFSVP, PYAWSVNC is lower in amyloid nucleation score: 2.07 ± 0.11 for the first, -0.579 ± 0.4 for the second.

VCFWSGEGNLGAWDGHELSM and NIYNVRLIVSH are within error of each other in amyloid nucleation score: 0.693 ± 0.46 for the first, -0.018 ± 0.54 for the second.

Going from LFRSSKSIRSLLSFCSICMF to QGWSMVWYYSLESEETT, the amyloid nucleation score falls from 5.33 ± 0.076 to -0.377 ± 0.6.

FFNRNLMCVVLIVRT and TRLSMLIYALTGNVMSGSCV are within error of each other in amyloid nucleation score: -0.388 ± 0.47 for the first, 0.505 ± 0.46 for the second.

Compared with ACFPLQVKDCYKCLGHLRAV, SIMGVDRLVVVWYGFDRCGF is higher in amyloid nucleation score: 0.315 ± 0.29 for the first, 1.31 ± 0.66 for the second.

Going from CNGAGNLEGDGF to CRLCVLCAMYGI, the amyloid nucleation score rises from 0.317 ± 0.33 to 0.939 ± 0.26.

Compared with GVPYR, TVRVVDLGQVVGSGVMASMP is higher in amyloid nucleation score: 0.044 ± 0.68 for the first, 1.23 ± 0.17 for the second.

ASKMALYPG and GLSGYSRVFMTADDVGVRVW are within error of each other in amyloid nucleation score: 0.366 ± 0.56 for the first, -1.18 ± 1.5 for the second.

STFAPNTSFGTIEIRFWICV and ARTKGSVAPTTLHANNGAWS are within error of each other in amyloid nucleation score: -0.702 ± 1.1 for the first, -0.053 ± 0.39 for the second.

First: KILCMSCFTNSYHARWTFIL
Second: RPDALGN
The amyloid nucleation score of the first is higher: 5.694 ± 0.051 for the first, -0.97 ± 0.64 for the second.

AFSLR and AYKVSRKLKVLRFDFIEV are within error of each other in amyloid nucleation score: -0.437 ± 0.57 for the first, -0.477 ± 0.71 for the second.

First: YRWVFKCRCRSPGGESKSSR
Second: KRVLCSTCIHRLCPKSGGDC
The amyloid nucleation score of the first is higher: 5.9 ± 0.097 for the first, 1.33 ± 0.68 for the second.

Going from QFHFMPWIDMSFSHLVHVYG to RAPTFMMNLDG, the amyloid nucleation score rises from -0.741 ± 0.29 to 3.34 ± 0.12.

First: RLFNTAQGSHSWH
Second: EGNLVLSMLMY
The amyloid nucleation score of the first is higher: 1.56 ± 0.71 for the first, -0.198 ± 0.47 for the second.

Compared with TSGHNVIPRGTVSSVVRILY, FRGMGAS is higher in amyloid nucleation score: -0.498 ± 0.36 for the first, 0.617 ± 0.62 for the second.

PDLTSCDVIVIWGFGRG and YYIVVCR are within error of each other in amyloid nucleation score: -0.118 ± 1 for the first, 0.932 ± 0.97 for the second.

NMDSNAIGGGGNGGVRLQSR and LTMPMKHLRGSPDLRVNGII are within error of each other in amyloid nucleation score: -0.76 ± 0.55 for the first, -0.502 ± 0.85 for the second.

IYFGFCRD gave an amyloid nucleation score of 2.02 ± 0.089.

In the case of SITRKRVRRDAGGMVCGLVS, the amyloid nucleation score is reported as “inactive”.
In the case of VLCSRIYDHAWAKG, the amyloid nucleation score is reported as “inactive”.
For VCVNSENHNFT, the amyloid nucleation score was “inactive”.
For LLCARCRMSVSEFPNPGVSY, the amyloid nucleation score was “inactive”.
With YWCNYVIVMSCKWG the amyloid nucleation score was “inactive”.
In the case of PTRLLLVSDRVTVHELF, the amyloid nucleation score is reported as “inactive”.
With SDIMDFEY the amyloid nucleation score was “inactive”.
